In the supplement of paper PMC10567573:

B1: SMTNL2 (parent)
chain: AFTMAENLANCERLIEVEDMMVMG

Variants of: B1
Experiment: protein stability index of a GFP-peptide fusion (GPS, HEK-293T) (PSI 1-6); higher = more stable
Settings: c terminus: a fixed tail appended
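Also: lentivirally expressed fusions sorted by FACS into six bins by GFP to DsRed ratio, PSI derived from sequencing read proportions per bin multiplied by bin number.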

Variant | protein stability index
AFTMAENLANCEKLIEVEDMMVMG | 2.67
AFTMAENLANCEMLIEVEDMMVMG | 2.56
AFTMAENLANCEYLIEVEDMMVMG | 2.17
AFTMAENLANCELLIEVEDMMVMG | 3.24
AFTMAENLANCEFLIEVEDMMVMG | 1.8
AFTMAENLANCECLIEVEDMMVMG | 2.08
AFTMAENLANCETLIEVEDMMVMG | 2.99
AFTMAENLANCEDLIEVEDMMVMG | 4.24
AFTMAENLANCEELIEVEDMMVMG | 3.96
AFTMAENLANCEVLIEVEDMMVMG | 1.49
AFTMAENLANCENLIEVEDMMVMG | 3.75
AFTMAENLANCEHLIEVEDMMVMG | 3.03
AFTMAENLANCEPLIEVEDMMVMG | 3.62
AFTMAENLANCEWLIEVEDMMVMG | 2.42
AFTMAENLANCERLIEVEDMMVEG | 3.69
AFTMAENLANCERLIEVEDMMVIG | 1.47
AFTMAENLANCERLIEVEDMMVFG | 1.54
AFTMAENLANCERLIEVEDMMVLG | 1.89
AFTMAENLANCERLIEVEDMMVHG | 2.24
AFTMAENLANCERLIEVEDMMVGG | 1.7
AFTMAENLANCERLIEVEDMMVKG | 2.8
AFTMAENLANCERLIEVEDMMVAG | 2.61
AFTMAENLANCERLIEVEDMMVPG | 2
AFTMAENLANCERLIEVEDMMVNG | 2.97

Variant | protein stability index
AFTMAENLANCERLIEVEDMMVCG | 2.09
AFTMAENLANCERLIEVEDMMVDG | 3.57
AFTMAENLANCERLIEHEDMMVMG | 2.35
AFTMAENLANCERLIECEDMMVMG | 1.98
AFTMAENLANCERLIEFEDMMVMG | 2.37
AFTMAENLANCERLIEIEDMMVMG | 2.16
AFTMAENLANCERLIEKEDMMVMG | 2.38
AFTMAENLANCERLIETEDMMVMG | 3.14
AFTMAENLANCERLIEPEDMMVMG | 4.04
AFTMAENLANCERLIEDEDMMVMG | 3.57
AFTMAENLANCERLIEGEDMMVMG | 3.71
AFTMAENLANCERLIEEEDMMVMG | 2.97
AFTMAENLANCERLIEWEDMMVMG | 2.09
AFTMAENLANCERLIEMEDMMVMG | 2.04
AFTMAENLANCERLIEQEDMMVMG | 2.43
AFTMAENLANCERLIEREDMMVMG | 2.88
AFTMAENLANCERLIEAEDMMVMG | 2.54
AFTMAENLANCERLIESEDMMVMG | 3.25
AFTMAENLANCERLIELEDMMVMG | 3.28
AFTMAENLANCERLIENEDMMVMG | 2.07
AFTMAENLANCERLIEYEDMMVMG | 2.47
AFTMAENLANCERLIQVEDMMVMG | 1.48
AFTMAENLANCERLIKVEDMMVMG | 1.89
AFTMAENLANCERLIGVEDMMVMG | 2.62

Variant | protein stability index
AFTMAENLANCERLIPVEDMMVMG | 2.79
AFTMAENLANCERLIFVEDMMVMG | 2.14
AFTMAENLANCERLITVEDMMVMG | 1.72
AFTMAENLANCERLIAVEDMMVMG | 1.99
AFTMAENLANCERLIRVEDMMVMG | 1.83
AFTMAENLANCERLIHVEDMMVMG | 1.97
AFTMAENLANCERLIMVEDMMVMG | 2.92
AFTMAENLANCERLISVEDMMVMG | 1.89
AFTMAENLANCERLINVEDMMVMG | 2.17
AFTMAENLANCERLIDVEDMMVMG | 3.2
AFTMAENLANCERLICVEDMMVMG | 1.9
AFTMAENLANCERLIYVEDMMVMG | 1.94
AFTMAENLANCERLREVEDMMVMG | 3.89
AFTMAENLANCERLTEVEDMMVMG | 4.25
AFTMAENLANCERLQEVEDMMVMG | 4.4
AFTMAENLANCERLVEVEDMMVMG | 3.42
AFTMAENLANCERLHEVEDMMVMG | 3.95
AFTMAENLANCERLPEVEDMMVMG | 4.02
AFTMAENLANCERLNEVEDMMVMG | 3.94
AFTMAENLANCERLYEVEDMMVMG | 2.95
AFTMAENLANCERLWEVEDMMVMG | 2.8
AFTMAENLANCERLLEVEDMMVMG | 2.82
AFTMAENLANCERLKEVEDMMVMG | 3.9
AFTMAENLANCERLDEVEDMMVMG | 4.49

Variant | protein stability index
AFTMAENLANCERLEEVEDMMVMG | 4.99
AFTMAENLANCERLMEVEDMMVMG | 3
AFTMAENLANCERLSEVEDMMVMG | 3.6
AFTMAENLANCERLGEVEDMMVMG | 3.77
AFTMAENLANCERLCEVEDMMVMG | 3.64
AFTMAENLANCERLAEVEDMMVMG | 4
AFTMAENLANCERLFEVEDMMVMG | 3.39
AFTMAENLANCERLIEVWDMMVMG | 1.02
AFTMAENLANCERLIEVIDMMVMG | 1.58
AFTMAENLANCERLIEVLDMMVMG | 2.22
AFTMAENLANCERLIEVRDMMVMG | 2.67
AFTMAENLANCERLIEVHDMMVMG | 2.85
AFTMAENLANCERLIEVDDMMVMG | 2.9
AFTMAENLANCERLIEVMDMMVMG | 1.97
AFTMAENLANCERLIEVGDMMVMG | 2.52
AFTMAENLANCERLIEVSDMMVMG | 2.01
AFTMAENLANCERLIEVQDMMVMG | 2.18
AFTMAENLANCERLIEVFDMMVMG | 3.08
AFTMAENLANCERLIEVKDMMVMG | 2.03
AFTMAENLANCERLIEVPDMMVMG | 3.06
AFTMAENLANCERLIEVYDMMVMG | 3.52
AFTMAENLANCERLIEVNDMMVMG | 3.43
